# Laboratory results taken from article PMC3737171, “Genetic Selection for Constitutively Trimerized Human HSF1 Mutants Identifies a Role for Coiled-Coil Motifs in DNA Binding” (G3: Genes|Genomes|Genetics, 2013).
# Changes are numbered by the printed parent chain. Names may count otherwise.
# B1: human HSF1 L189P, expressed in hsf1-/- mouse embryonic fibroblasts (natural protein, UniProt Q00613 1-529, looked up)
# chain: MDLPVGPGAAGPSNVPAFLTKLWTLVSDPDTDALICWSPSGNSFHVFDQGQFAKEVLPKYFKHNNMASFVRQLNMYGFRKVVHIEQGGLVKPERDDTEFQHPCFLRGQEQLLENIKRKVTSVSTLKSEDIKIRQDSVTKLLTDVQLMKGKQECMDSKLLAMKHENEALWREVASLRQKHAQQQKVVNKPIQFLISLVQSNRILGVKRKIPLMLNDSGSAHSMPKYSRQFSLEHVHGSGPYSAPSPAYSSSSLYAPDAVASSGPIISDITELAPASPMASPGGSIDERPLSSSPLVRVKEEPPSPPQSPRVEEASPGRPSSVDTLLSPTALIDSILRESEPAPASVTALTDARGHTDTEGRPPSPPPTSTPEKCLSVACLDKNELSDHLDAMDSNLDNLQTMLSSHGFSVDTSALLDLFSPSVTVPDMSLPDLDSSLASIQELLSPQEPPRPPEAENSSPDSGKQLVHYTAQPLFLLDPGSVDTGSNDLPVLFELGEGSYFSEGDGFAEDPTISLLTGSEPPKAKDPTVS
# notes: human heat shock transcription factor 1 (HSF1) with L189P in LZ3; also called L189P HSF1 mutant; source: hsf1-/- MEFs, transfected, in protein extract
# B2: human HSF1 L402P, expressed in hsf1-/- mouse embryonic fibroblasts (natural protein, UniProt Q00613 1-529, looked up)
# chain: B1 chain with P189L, L402P
# notes: human heat shock transcription factor 1 (HSF1) with L402P in LZ4; also called L402P mutant; source: hsf1-/- MEFs, transfected, in protein extract
# B3: human HSF1 M161I, expressed in hsf1-/- mouse embryonic fibroblasts (natural protein, UniProt Q00613 1-529, looked up)
# chain: B1 chain with M161I, P189L
# notes: human heat shock transcription factor 1 (HSF1) with M161I in LZ1-3; also called M161I mutant; source: hsf1-/- MEFs, transfected, in protein extract
# B4: human HSF1 K178E, expressed in hsf1-/- mouse embryonic fibroblasts (natural protein, UniProt Q00613 1-529, looked up)
# chain: B1 chain with K178E, P189L
# notes: human heat shock transcription factor 1 (HSF1) with K178E between LZ1/2 and LZ3; also called K178E mutant; source: hsf1-/- MEFs, transfected, in protein extract
# B5: human HSF1 H179Y, expressed in hsf1-/- mouse embryonic fibroblasts (natural protein, UniProt Q00613 1-529, looked up)
# chain: B1 chain with H179Y, P189L
# notes: human heat shock transcription factor 1 (HSF1) with H179Y between LZ1/2 and LZ3; also called H179Y mutant; source: hsf1-/- MEFs, transfected, in protein extract
# B6: human HSF1 M161I, expressed in yeast (natural protein, UniProt Q00613 1-529, looked up)
# chain: B1 chain with M161I, P189L
# notes: human heat shock transcription factor 1 (HSF1) with M161I in LZ1-3; Found by random mutagenesis in E. coli XL-1 Red; also called M161I mutant; source: S. cerevisiae PS145, mutant of plasmid pRS423GPD-hHSF1, in total protein extract
# B7: human HSF1 K178E, expressed in yeast (natural protein, UniProt Q00613 1-529, looked up)
# chain: B1 chain with K178E, P189L
# notes: human heat shock transcription factor 1 (HSF1) with K178E between LZ1/2 and LZ3; Found by random mutagenesis in E. coli XL-1 Red; also called K178E mutant; source: S. cerevisiae PS145, mutant of plasmid pRS423GPD-hHSF1, in total protein extract
# B8: human HSF1 H179Y, expressed in yeast (natural protein, UniProt Q00613 1-529, looked up)
# chain: B1 chain with H179Y, P189L
# notes: human heat shock transcription factor 1 (HSF1) with H179Y between LZ1/2 and LZ3; Found by random mutagenesis in E. coli XL-1 Red; also called H179Y mutant; source: S. cerevisiae PS145, mutant of plasmid pRS423GPD-hHSF1, in total protein extract
# B9: human HSF1 L189P, expressed in yeast (natural protein, UniProt Q00613 1-529, looked up)
# chain: B1 chain
# notes: human heat shock transcription factor 1 (HSF1) with L189P in LZ3; Found by random mutagenesis in E. coli XL-1 Red; also called L189P HSF1 mutant; source: S. cerevisiae PS145, mutant of plasmid pRS423GPD-hHSF1, in total protein extract
# B10: human HSF1 L402P, expressed in yeast (natural protein, UniProt Q00613 1-529, looked up)
# chain: B1 chain with P189L, L402P
# notes: human heat shock transcription factor 1 (HSF1) with L402P in LZ4; Found by random mutagenesis in E. coli XL-1 Red; also called L402P mutant; source: S. cerevisiae PS145, mutant of plasmid pRS423GPD-hHSF1, in total protein extract
# Target: the molecule itself
# Experiment: cross-linking; EGS cross-linking of extracts of transfected hsf1-/- MEFs, without stress and after heat stress; immunoblot for HSF1
row,Molecule,stoichiometry N
1,B1,3
2,B2,3
3,B3,3
4,B4,3
5,B5,3

# Target: the molecule itself
# Experiment: cross-linking; EGS cross-linking of total protein extracts of yeast PS145 grown on galactose medium; SDS-PAGE and immunoblot with an HSF1-specific antibody
row,Molecule,stoichiometry N
1,B6,3
2,B7,3
3,B8,3
4,B9,3
5,B10,3

# Target: wild-type human HSF1, expressed in hsf1-/- mouse embryonic fibroblasts (human) (UniProt Q00613)
# Experiment: cross-linking; EGS cross-linking of extracts of transfected hsf1-/- MEFs, without stress and after heat stress; immunoblot for HSF1
row,Molecule,stoichiometry N
1,"wild-type human HSF1, expressed in hsf1-/- mouse embryonic fibroblasts (from UniProt Q00613 1-529) (natural protein)",3
